Patent publication US20040106555, “Neurogenin3 and production of pancreatic islet cells” (published 2004)

Legend:
[1] = target: T1, HNF3beta (FOXA2) (Rattus norvegicus, UniProt P32182 P32182:1-458); assay: EMSA; high affinity; details: tags: pGEM-1 ratHNF3beta, TNT lysate; label: 32P
T1 sequence: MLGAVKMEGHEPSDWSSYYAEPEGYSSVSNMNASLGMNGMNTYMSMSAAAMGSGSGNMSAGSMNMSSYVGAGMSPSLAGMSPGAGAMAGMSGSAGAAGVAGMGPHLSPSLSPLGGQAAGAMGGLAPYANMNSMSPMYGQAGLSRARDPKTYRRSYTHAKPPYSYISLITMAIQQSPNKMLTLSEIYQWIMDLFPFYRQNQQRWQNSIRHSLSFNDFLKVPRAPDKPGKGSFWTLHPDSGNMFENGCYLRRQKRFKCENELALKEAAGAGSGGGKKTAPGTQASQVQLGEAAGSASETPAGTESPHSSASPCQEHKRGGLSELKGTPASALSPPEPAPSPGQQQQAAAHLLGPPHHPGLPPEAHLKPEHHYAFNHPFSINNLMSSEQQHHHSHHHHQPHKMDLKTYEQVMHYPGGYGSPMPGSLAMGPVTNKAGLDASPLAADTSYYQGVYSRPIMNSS
Description: (§1) Single-stranded oligonucleotides corresponding to the sequences in the human ngn3 promoter were 5′ end-labeled with [γ-³²P]-ATP using T4 polynucleotide kinase. The labeled oligonucleotides were column-purified and annealed to an excess of the complementary strand. For HNF3β and HNF 1α binding experiments, EMSA buffers and electrophoresis conditions were as previously described (Mirmira et al. J Biol Chem 275:14743-51, 2000). For HES-1 binding experiments, conditions were the same except that the poly(dI-dC) concentration was decreased to 15 ng/ul. One μl of the in vitro reaction mixture or 2 ug of nuclear extracts or 400 ng of GST-fused Hes1 protein were used for each binding reaction. When using antibodies, 1 μl of each antibody was incubated with the binding mix for 15 min at room temperature prior to gel-electrophoresis. The antisera against HNF-3α, -3β, and -3γ were a generous gift from R. Costa (University of Illinois) and the HES-1 antiserum was a generous gift from Y. Jan (University of California San Francisco). The anti-HNF-1α antiserum was purchased from Santa Cruz Biotechnology, Inc. […]

[2] = target: T1, HNF3beta (FOXA2); assay: EMSA; high affinity; proximal and distal sites compete equally; details: tags: pGEM-1 ratHNF3beta, TNT lysate; label: 32P
Description: as §1

[3] = target: T2, E47 (UniProt P15923-2 P15923-2:1-651); assay: EMSA; comparable affinity on all four probes; details: tags: TNT reticulocyte lysate; chain copies: 2 inferred; label: 32P
T2 sequence: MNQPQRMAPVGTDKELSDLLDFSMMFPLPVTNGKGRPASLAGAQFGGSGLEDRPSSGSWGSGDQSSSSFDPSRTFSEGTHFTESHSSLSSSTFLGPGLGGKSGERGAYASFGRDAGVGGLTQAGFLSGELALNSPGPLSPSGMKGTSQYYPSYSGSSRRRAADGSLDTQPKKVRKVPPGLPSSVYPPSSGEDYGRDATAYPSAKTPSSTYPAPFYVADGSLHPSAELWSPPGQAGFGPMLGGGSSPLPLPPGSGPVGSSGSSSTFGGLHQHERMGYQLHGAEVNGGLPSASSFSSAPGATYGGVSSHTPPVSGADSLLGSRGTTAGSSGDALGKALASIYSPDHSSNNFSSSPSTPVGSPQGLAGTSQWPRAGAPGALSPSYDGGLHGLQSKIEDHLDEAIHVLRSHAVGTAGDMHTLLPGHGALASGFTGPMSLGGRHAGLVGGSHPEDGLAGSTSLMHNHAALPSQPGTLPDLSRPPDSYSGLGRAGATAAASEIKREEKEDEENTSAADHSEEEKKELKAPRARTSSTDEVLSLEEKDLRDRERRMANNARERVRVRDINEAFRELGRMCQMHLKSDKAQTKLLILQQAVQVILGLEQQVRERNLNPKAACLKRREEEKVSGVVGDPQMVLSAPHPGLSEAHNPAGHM
Procedure: (§2) FIGS. 23A-23B are photographs of electromobility shift assays (EMSAs) showing that bHLH factors bind pancreatic promoter E boxes. EMSA were used to test the ability of E47, neurogenin3 and neuroD 1 to bind to labeled, double stranded oligonucleotides containing the E box sequences from the rat insulin I and mouse nkx2.2 promoters (23A) or the human PAX4 and NEUROG3 promoters (23B). 1 μl of each in vitro-translated protein was incubated with the indicated probes, either individually or in the combination shown. Results are typical of experiments done on three occasions.
(§3) Electromobility Shift Assays. Single stranded oligonucleotides were 5′-end labeled using (γ-32P) ATP and T4 polynucleotide kinase. An excess of complementary strand was then annealed to form a duplex strand that was column purified. EMSA buffers and electrophoresis conditions were as described above using 500 ng of poly(dIdC):poly(dIdC) per 10 ul binding mix. For in vitro produced protein, 1 μl of the 50 μl total reaction volume was used per binding mix.
(§4) Oligonucleotides used were as follows (coding strand shown from each double stranded pair): NEUROG3 promoter E element, 5′-[…]-3′; rat insulin I promoter E2 element, 5′-[…]-3′; PAX4 promoter E element, 5′-[…]-3′; nkx2.2 promoter E3 element 5′-[…]-3′. EMSA results are representative of those seen on at least 3 occasions.

[4] = target: T3, E47/NeuroD1 heterodimer (UniProt P15923-2;Q60867 P15923-2:1-651,Q60867:1-357); assay: EMSA; strongest of four; details: tags: TNT reticulocyte lysate; label: 32P
Procedure: as §2, §3, §4

[5] = target: T3, E47/NeuroD1 heterodimer; assay: EMSA; second strongest of four; details: tags: TNT reticulocyte lysate; label: 32P
Procedure: as §2, §3, §4

[6] = target: NeuroD1 (UniProt Q60867 Q60867:1-357); assay: EMSA; homodimer; details: tags: TNT reticulocyte lysate; chain copies: 2 stated; label: 32P
Procedure: as §2, §3, §4

[7] = target: T3, E47/NeuroD1 heterodimer; assay: EMSA; third of four; details: tags: TNT reticulocyte lysate; label: 32P
Procedure: as §2, §3, §4

T3 sequence (Q60867 whole entry, one chain of several): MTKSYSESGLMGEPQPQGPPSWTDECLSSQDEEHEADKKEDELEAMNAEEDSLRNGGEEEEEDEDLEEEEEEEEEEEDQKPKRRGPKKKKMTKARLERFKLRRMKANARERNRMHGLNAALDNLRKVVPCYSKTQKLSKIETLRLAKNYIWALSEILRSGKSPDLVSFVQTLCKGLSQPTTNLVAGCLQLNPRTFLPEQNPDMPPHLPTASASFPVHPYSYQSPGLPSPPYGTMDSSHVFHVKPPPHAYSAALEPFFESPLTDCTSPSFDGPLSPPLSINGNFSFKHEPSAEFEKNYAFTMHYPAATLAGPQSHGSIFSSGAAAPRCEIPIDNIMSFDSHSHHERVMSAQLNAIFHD
Chain of NeuroD1 (Q60867 whole entry, one chain of several): as above

B1: H3-1 (ngn3 promoter proximal) (dsDNA)
DNA 1: GATCTCTCGAGAGAGCAAACAGCGCGGCGG
DNA 2: CCGCCGCGCTGTTTGCTCTCTCGAGAGATC
binding result [1]: binds

B2: H3-2 (ngn3 promoter distal) (dsDNA)
DNA 1: TTATTATTATTTTAGCAAACACTGGAGACAG
DNA 2: CTGTCTCCAGTGTTTGCTAAAATAATAATAA
binding result [2]: binds

B3: NEUROG3 E box (dsDNA)
DNA 1: CTTTGTCCGGAATCCAGCTGTGCCCTGCGGGGGAG
DNA 2: CTCCCCCGCAGGGCACAGCTGGATTCCGGACAAAG
binding result [3]: binds

B4: PAX4 E box (dsDNA)
DNA 1: TGTATAATTGTGAGCAGATGGCGGGGGCTGGCGGC
DNA 2: GCCGCCAGCCCCCGCCATCTGCTCACAATTATACA
binding result [3]: binds
binding result [4]: binds

B5: rat insulin I E2 (dsDNA)
DNA 1: CTGCTTCATCAGGCCATCTGGCCCCTTGTTAATAA
DNA 2: TTATTAACAAGGGGCCAGATGGCCTGATGAAGCAG
binding result [3]: binds
binding result [5]: binds

B6: nkx2.2 E3 (dsDNA)
DNA 1: TTATTACCGCTGAACATATGGCCAATATTTTGACT
DNA 2: AGTCAAAATATTGGCCATATGTTCAGCGGTAATAA
binding result [6]: binds
binding result [3]: binds
binding result [7]: binds
